± gives the standard deviation of the averaged measurements.
Test system: ATP
Assay: switch fluorescence ratio, 500 uM ATP over buffer (Cy3 cluster intensity, sum of 5 cycles each) (fold (ratio)); higher = stronger signal-on switching upon ATP binding; sequences stand for … in TCGTCGGCAGCGTCAGATGTGTATAAGAGACAGTTTTTTTTTTTTTTTTTTTTTTTTT…TC
Conditions: aptamer strand: ATP DNA aptamer (quencher-CACCTGGGGGAGTATTGCGGAGGAAGG + anchor), 100 nM annealed; ATP concentration: 500 uM
How it was run: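 Cy3-labelled switching-strand clusters on a modified Illumina MiSeq flow-cell were annealed to 100 nM quencher-labelled ATP aptamer and imaged first in selection buffer, then after 15 min with 500 uM ATP at 22 °C. NaOH stripping and re-annealing separated each of five buffer/ATP cycles, and clusters outside 100-1000 RFU were excluded. The fluorescence ratio sums target-cycle Cy3 intensity over buffer-cycle Cy3 intensity per cluster and averages it per switch-domain sequence.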
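Note: ATP exposure 15 min at 22 °C before imaging.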

Row | Sequence | switch fluorescence ratio
1 | AAGTTGGGGG | 1.01 ± 0.025
2 | GGTTCCACGC | 1.09 ± 0.025
3 | GGGGCATGGA | 0.95 ± 0.018
4 | GGAAAATGTA | 1.023 ± 0.0063
5 | CCAAATGGTG | 1.16 ± 0.021
6 | GCAGCTGTAT | 1.08 ± 0.014
7 | TTGTTGTGTT | 1.005 ± 0.0098
8 | TGGTTGGGAT | 1 ± 0.04
9 | GGGGGGGAAT | 1 ± 0.045
10 | TAGGCCATAG | 1.008 ± 0.0055
11 | ATGATTTTGT | 1.013 ± 0.01
12 | GGTTAGATGG | 0.978 ± 0.043
13 | ACTTGGGGGA | 0.9907 ± 0.0057
14 | TCGAAAAATT | 0.975 ± 0.048
15 | CTGACGGCTT | 1.056 ± 0.0068
16 | CTGTAAGGCG | 1.05 ± 0.025
17 | TTGCGAGGGC | 1 ± 0.028
18 | GTTTAAGTTA | 0.991 ± 0.025
19 | GCCTTGTGCA | 0.995 ± 0.017
20 | GAGGAAAGGC | 0.999 ± 0.058
21 | ATTTCGTTCG | 0.977 ± 0.013
22 | TGTATACTTT | 1.018 ± 0.0081
23 | TTTATAAAAA | 0.998 ± 0.026
24 | CGCGTAGAC | 1.66 ± 0.14
25 | AGTTAAAGCT | 1.151 ± 0.0063

Row | Sequence | switch fluorescence ratio
26 | TCTAAAGCTG | 1 ± 0.023
27 | TAGCTAGATG | 1.02 ± 0.022
28 | GCTGAGGGGA | 1.03 ± 0.049
29 | TTCGTCATTT | 0.983 ± 0.034
30 | TTATTTCGCG | 0.986 ± 0.041
31 | TACAAGCTAA | 0.978 ± 0.032
32 | AGTTAGTTCG | 0.969 ± 0.043
33 | AATTATACGT | 1.05 ± 0.014
34 | ATTCGCGGAA | 1.02 ± 0.029
35 | CCTTTTACTT | 1.03 ± 0.032
36 | TGATGGATTG | 0.99 ± 0.028
37 | AACTTTGTTG | 1 ± 0.011
38 | TGCGTATATT | 0.98 ± 0.017
39 | TGTTTTACGA | 1.07 ± 0.043
40 | GTCGGAGTCA | 1 ± 0.034
41 | GCTGAGGCAG | 1.002 ± 0.0046
42 | AGATGCCAGG | 1.1 ± 0.031
43 | CATGAGACCG | 1.03 ± 0.016
44 | TAATCAGGAA | 1.015 ± 0.0046
45 | GGAATAGTGG | 0.982 ± 0.025
46 | ATGGCACTGG | 1.07 ± 0.013
47 | TTGGCTTGTC | 0.954 ± 0.019
48 | TGTGAGGGCG | 1.06 ± 0.015
49 | TGGGTACGCA | 1.03 ± 0.027
50 | CGGCTACTTT | 1.03 ± 0.038

Row | Sequence | switch fluorescence ratio
51 | TAACGGGTGG | 1.01 ± 0.037
52 | GGGTGATGGT | 0.964 ± 0.053
53 | CACGGCGTAG | 1.02 ± 0.013
54 | CGGCCTAAGG | 1.01 ± 0.016
55 | TGGGGGGCTA | 1.02 ± 0.056
56 | CAGGAGTGAG | 1.0068 ± 0.00044
57 | TCGGGGGTG | 1.01 ± 0.085
58 | GGATTGTAAT | 0.9956 ± 0.0034
59 | AATGCTAAGA | 1.01 ± 0.044
60 | CGGGTTCTCG | 0.978 ± 0.025
61 | CAGGACCCGG | 1.071 ± 0.0084
62 | GGTAATTGTT | 0.998 ± 0.025
63 | ACAAGGGGCT | 1.02 ± 0.021
64 | CAGATGTGGC | 0.927 ± 0.037
65 | CCAAGGGTAT | 0.9873 ± 0.0019
66 | CCATATCGAC | 1.05 ± 0.05
67 | AGAGGGCCAT | 0.9972 ± 0.0021
68 | GTGCTTCTTT | 0.99 ± 0.011
69 | ATGTTGATCT | 0.983 ± 0.024
70 | ATCAAGGGTG | 1.11 ± 0.013
71 | CGGCTGTGGT | 1.01 ± 0.03
72 | GGGGGATCTC | 1.01 ± 0.021
73 | ATCTAGATTG | 0.982 ± 0.042
74 | TTTCGAGGAC | 0.983 ± 0.011
75 | CACGGGGGAT | 1.03 ± 0.011

Row | Sequence | switch fluorescence ratio
76 | CGATTTCGTT | 0.984 ± 0.013
77 | GGATTTTGGC | 0.99 ± 0.019
78 | GATGTTAAGA | 0.998 ± 0.046
79 | TTAACGGTAA | 1.09 ± 0.042
80 | ACTGGGGCGG | 1.022 ± 0.0063
81 | TTTGAGCTGT | 1.02 ± 0.042
82 | ATTATCCGCT | 1.15 ± 0.014
83 | AAGTTGCTTG | 0.989 ± 0.02
84 | GTTATTGGAG | 0.999 ± 0.026
85 | CGTGTGTGGT | 0.994 ± 0.024
86 | TTGGTTGCAA | 0.983 ± 0.029
87 | GGCCTTTATT | 1.01 ± 0.031
88 | TTTCAATTTT | 0.996 ± 0.026
89 | GGGGAGGCCC | 0.998 ± 0.031
90 | AATGTTCGTT | 1.01 ± 0.014
91 | TAAAGGGCAC | 1.011 ± 0.0093
92 | GATATACAGC | 1.02 ± 0.017
93 | TTTCCTGTAT | 0.972 ± 0.046
94 | AGTTGGTAGC | 1.01 ± 0.011
95 | CCGGACCACG | 1.01 ± 0.029
96 | TTCCATCCAT | 1.0067 ± 0.00069
97 | TTGGTTGGGG | 1 ± 0.03
98 | TAAAGTTCAG | 0.9685 ± 0.0073
99 | TATGCAGTTT | 0.968 ± 0.026
100 | GCATGGTTTT | 0.975 ± 0.029

From the supplement of paper PMC10126150
